Biological target: T1, CasEnd-5 (synthetic construct)
T1 chain: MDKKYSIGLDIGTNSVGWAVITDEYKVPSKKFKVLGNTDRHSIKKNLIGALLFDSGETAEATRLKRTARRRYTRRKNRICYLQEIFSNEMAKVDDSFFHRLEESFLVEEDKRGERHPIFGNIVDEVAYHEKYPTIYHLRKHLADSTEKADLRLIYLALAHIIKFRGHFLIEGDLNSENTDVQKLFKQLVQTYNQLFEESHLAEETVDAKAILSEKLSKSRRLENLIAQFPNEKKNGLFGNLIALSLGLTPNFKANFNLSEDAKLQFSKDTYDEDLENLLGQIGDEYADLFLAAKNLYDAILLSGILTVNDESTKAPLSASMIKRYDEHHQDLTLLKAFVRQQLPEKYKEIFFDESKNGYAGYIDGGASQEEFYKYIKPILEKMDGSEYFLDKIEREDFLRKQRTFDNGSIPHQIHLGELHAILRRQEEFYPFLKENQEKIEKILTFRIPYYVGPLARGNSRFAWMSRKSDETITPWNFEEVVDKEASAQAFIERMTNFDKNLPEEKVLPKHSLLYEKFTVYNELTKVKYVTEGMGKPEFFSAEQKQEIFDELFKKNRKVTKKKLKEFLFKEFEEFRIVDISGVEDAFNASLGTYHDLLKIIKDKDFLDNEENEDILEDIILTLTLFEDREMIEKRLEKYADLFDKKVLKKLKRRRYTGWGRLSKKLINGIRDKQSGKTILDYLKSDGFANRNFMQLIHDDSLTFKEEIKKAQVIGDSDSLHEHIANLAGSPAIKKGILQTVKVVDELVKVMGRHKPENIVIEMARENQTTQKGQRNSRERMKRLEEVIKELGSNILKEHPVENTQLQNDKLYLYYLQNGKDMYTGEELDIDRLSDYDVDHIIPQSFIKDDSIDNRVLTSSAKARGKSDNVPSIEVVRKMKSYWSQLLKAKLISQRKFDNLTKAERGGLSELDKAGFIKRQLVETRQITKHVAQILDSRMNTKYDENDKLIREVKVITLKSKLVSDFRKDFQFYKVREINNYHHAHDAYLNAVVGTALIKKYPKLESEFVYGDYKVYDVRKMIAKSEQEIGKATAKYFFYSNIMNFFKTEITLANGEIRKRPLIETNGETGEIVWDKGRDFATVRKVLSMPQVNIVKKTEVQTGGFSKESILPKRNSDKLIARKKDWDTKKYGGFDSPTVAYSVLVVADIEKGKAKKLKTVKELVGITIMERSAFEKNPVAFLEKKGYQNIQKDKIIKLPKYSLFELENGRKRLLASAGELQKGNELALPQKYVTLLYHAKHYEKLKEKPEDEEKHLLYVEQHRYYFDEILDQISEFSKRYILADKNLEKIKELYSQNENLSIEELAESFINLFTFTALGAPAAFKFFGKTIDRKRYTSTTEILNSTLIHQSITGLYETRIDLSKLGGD
Assay: cell_activity; +++; HEK293T; PAM not stated
Procedure, shortened: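 Editing activity was scored as the fraction of GFP+ cells on day 4 by flow cytometry. BFP-expressing HEK293T cells (250,000) received by nucleofection 200 ng plasmid for the RT-Cas fusion protein and 200 ng template RNA plasmid designed to convert BFP to GFP.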

B1: BFP-to-GFP template RNA ; BFP reporter protospacer (ssRNA ; dsDNA)
RNA: GCCGAAGCACUGCACGCCGUGUUUUAGAGCUAGAAAUAGCAAGUUAAAAUAAGGCUAGUCCGUUAUCAACUUGAAAAAGUGGCACCGAGUCGGUGCACCCUGACGUACGGCGUGCAGUGCUU
DNA 1: GCCGAAGCACTGCACGCCGT
DNA 2: ACGGCGTGCAGTGCTTCGGC
  activity: ≥ 100 % of reference

From patent US20250092426, “CAS ENDONUCLEASES AND RELATED METHODS” (Flagship Pioneering Innovations VII, LLC, published 2025)
